Experimental data: PMC13618070

Target: DCR-1•DRH-1 complex (DCR-1•(OSF)DRH-1) (C. elegans) (UniProt P34529)
Test: pull-down

percent recovery normalized to WT RDE-4: 8%
Substance: RDE-4 truncation R1R2 (dsRBM1 and dsRBM2, ends with D243) (from UniProt G5EBF5 1-243) (domain or fragment)
